Measured values published in PMC10514136, “Peptide-conjugated antimiRs improve myotonic dystrophy type 1 phenotypes by promoting endogenous MBNL1 expression” (Molecular Therapy. Nucleic Acids, 2023).
Read-outs that look alike come from different tables or passages of the source.

Experiments:
[1] = tested on: MBNL1 protein levels in DM1 cells; assay: MBNL1 protein levels by QDB in DM1 cells after gymnotic delivery; type: cell-based, human; conditions: for MBNL1 protein levels vs untreated DM1 cells: gymnosis at the EC50 concentration of each compound; for MBNL1 fold change: gymnotic delivery
Description: Immortalized MyoD-inducible (doxycycline) DM1 and control fibroblasts were kindly provided by Dr Furling (Institute of Myology, Paris, France).[38] For the activity assay, cells were seeded in 6-well plates at a density of 8 × 10^4 cells/well and grown in DMEM with 4.5 g/L glucose, 1% P/S, and 10% FBS (Sigma, St. Louis, MO). To transdifferentiate fibroblasts into myoblasts by inducing MyoD expression, the cells were plated in muscle differentiation medium containing DMEM with 4.5 g L^−1 glucose, 1% P/S, 2% horse serum, 1% apo-transferrin (10 mg mL^−1), 0.1% insulin (10 mg mL^−1), and 0.02% doxycycline (10 mg mL^−1). In all cases, the cells were grown at 37°C in a humidified atmosphere containing 5% CO2. Transdifferentiation was induced at day 0, and transfection was performed by lipofection with X-tremeGENE HP (Roche, Basel, Switzerland) 24 h later, with antimiRs and test compounds in the cell medium at different concentrations (from 0.4 nM to 5 μM). The medium was replaced with fresh differentiation medium 4 h afterward. In the gymnosis assay, test compounds were added to the culture medium only at the corresponding EC50 concentration. Cells were collected on day 4 of differentiation and were processed for protein extraction.
(§1) A 96-well plate QDB assay was used[87] to determine MBNL1 protein levels in all replicates and concentrations of each ON tested. This technique allows for high-throughput screening of low protein concentration samples over conventional western blot (WB) (Figure S9).[88] Cell samples (1 μg/well) and mice samples (2 μg/well) were prepared with 4× loading buffer, denatured (100°C for 5 min) and loaded in QDB plates (Quanticision Diagnostics, Research Triangle Park, NC). For the quantification of in vitro samples, the QDB was performed exactly as described in Moreno et al.[87] Each cell sample was loaded in quadruplicate in two different plates; one was used to detect MBNL1 (it was incubated overnight with primary mouse anti-MBNL1 [1:1,000, Abcam, ab77017]) and the other for GAPDH (it was incubated overnight with primary mouse anti-GAPDH [1:500, Santa Cruz, clone G-9]), which was used here as an endogenous control. For Mbnl1 quantification in mouse muscle tissues, we implemented the following modifications: each sample was loaded in quadruplicate on three different plates. One was used to detect Mbnl1 with a mouse MB1a(4A8) antibody (DSHB, Iowa City, IA) using a 1:200 dilution. A second plate was used to quantify tubulin (endogenous normalization control) with a mouse 12G10 antibody (DSHB) using a 1:1,000 dilution. A third plate was used to quantify IgG signal (negative control to subtract background) using an anti-mouse-IgG secondary antibody (Sigma-Aldrich) at 1:3,500 dilution. This subtraction was necessary due to an unspecific IgG signal could be observed in mouse samples (Figures S10A–S10D). All primary antibodies were detected using horseradish peroxidase-conjugated anti-mouse-IgG secondary antibody (1:5,000 for the anti-mouse plate, 1:2,000 for cell plates, and 1:3,500 for mouse plates [Sigma-Aldrich, MO]). Immunoreactive bands were detected using Pierce ECL Western reagent (Thermo Scientific), and luminescence levels were determined using an Infinite M200 PRO plate reader (Tecan). The validity of this correction for QDB quantification of mouse samples was confirmed by performing a series of experiments determining both the window of linearity of the assay (2–5 μg protein, Figures S10A–S10B) and the comparison with data obtained by WB in a subset of samples (Figures S10E–S10H), obtaining a correlation of 0.9927 for MBNL1 and 0.8678 for tubulin (in the case of quadriceps), and 0.9821 for MBNL1 and 0.9699 for tubulin (in gastrocnemius). For WB assay in quadriceps (Figure S10I), samples were loaded in pools of each treatment to have a representative WB of all the treatments tested. WB assay was performed as described previously.[20]

[2] = tested on: DM1 cells; assay: Cell proliferation assay (CellTiter 96 AQueous), cell growth inhibition after lipofection; type: cell-based, human
Description: Cells seeded at 10^5 cells/mL in 96-well plates were transfected 24 h later with antimiRs as described previously.[20] After 96 h, cell proliferation was measured using the CellTiter 96 AQueous Non-Radioactive Cell Proliferation Assay (Promega, Madison, WI). Absorbance levels were determined using an Infinite M200 PRO plate reader (Tecan, Männedorf, Switzerland) and the TC50 was calculated using non-linear least-squares regression.

[3] = Bodyweight-normalized spleen weight and body weight; type: in vivo, mouse
Text: Mouse handling and experimental procedures followed the European law regarding laboratory animal care and experimentation (2003/65/C.E.) and were approved by Conselleria de Agricultura, […] (reference no. A1539961490857). We used homozygous transgenic HSA^LR (line 20 b) mice,[90] which were kindly provided by Dr Thornton (Rochester, NY) and were housed and bred in our animal facility. […] The mice were randomly allocated to the different treatments as follows: in each cage, each mouse was ear-marked as it was taken out, and each mouse was then assigned to a different treatment. Animals were injected biweekly intravenously with 150 μL of 1× PBS vehicle (controls; […] Mice were sacrificed 45 days after the first injection and the tissues of interest were frozen in liquid nitrogen for the molecular and histological assays. All the mice used in this study ranged from 5 to 5.5 months of age and all were males.

[4] = tested on: Mbnl1 protein; assay: Western blot of Mbnl1 in mouse muscle; type: in vivo; set-up: scale not given here; conditions: HSALR mice, quadriceps, same value given for every mouse of a treatment group
Description: as §1

[5] = tested on: IL-1β, IL-6, MCP-1, IL-12β, TNF-α, IL-15, Mstn-1; assay: Proinflammatory cytokines and Mstn-1 in quadriceps by qRT-PCR; type: in vivo, mouse
[6] = HSALR mice, 9.2 mg/kg (mean) i.v. x3, day 45, qRT-PCR

Substance	MBNL1 protein levels vs untreated DM1 cells [1]	TC50 [2] [nM]	Weight ([3]; mouse, in vivo, iv, 9.2 mg/kg)	Mbnl1 Quads, WB assay ([4]; western blot)	Mbnl1 Quads, WB assay ([4]; protein)	Mstn-1 expression in quadriceps [5, 6]	further results
6aKC-23b (antisense GGUAAUCCCUGGCAAUGUGAU; all phosphorodiamidate morpholino (PMO), T or U not given here; Pip6aKC peptide conjugated)	significant increases observed in MBNL1 protein levels	1711.00	39.84 ± 3,561 g	1.13			MBNL1 fold change ([1]; 200 nM): ~2.5 fold
6aKC-218 (antisense ACAUGGUUAGAUCAAGCACAA; all phosphorodiamidate morpholino (PMO), T or U not given here; Pip6aKC peptide conjugated)	significant increases observed in MBNL1 protein levels	1809.00	39,02 ± 1,460 g		1.02		MBNL1 fold change ([1]; 1 μM): ~2 fold
9b2-23b (antisense GGUAAUCCCUGGCAAUGUGAU; all phosphorodiamidate morpholino (PMO), T or U not given here; Pip9b2 peptide conjugated)		88.00	32,78 ± 4,285 g	1.46	1.46	downregulation of Mstn-1	IL1β Quads (2^-ddCt qPCR assays) ([5]; mouse, in vivo): 0.49; IL6 Quads (2^-ddCt qPCR assays) ([5]; mouse, in vivo): 0.39; IL12β Quads (2^-ddCt qPCR assays) ([5]; mouse, in vivo): 0.57; IL15 Quads (2^-ddCt qPCR assays) ([5]; mouse, in vivo): 2.25; MCP-1 Quads (2^-ddCt qPCR assays) ([5]; mouse, in vivo): 0.55; TNF-α Quads (2^-ddCt qPCR assays) ([5]; mouse, in vivo): 0.26; Weight (g) W.0 ([3]; mouse, in vivo): 28.7 g; Weight (g) W.1 ([3]; mouse, in vivo): 29.2 g; Weight (g) W.2 ([3]; mouse, in vivo): 28.6 g; Weight (g) W.3 ([3]; mouse, in vivo): 29 g; Weight (g) W.4 ([3]; mouse, in vivo): 29.1 g; Weight (g) W.5 ([3]; mouse, in vivo): 29.4 g; Weight (g) W.6 ([3]; mouse, in vivo): 29.1 g
9b2-218 (antisense ACAUGGUUAGAUCAAGCACAA; all phosphorodiamidate morpholino (PMO), T or U not given here; Pip9b2 peptide conjugated)	significant increases observed in MBNL1 protein levels	42.00	30,76 ± 2,745 g		1.58		
9b2KC-23b (antisense GGUAAUCCCUGGCAAUGUGAU; all phosphorodiamidate morpholino (PMO), T or U not given here; Pip9b2KC peptide conjugated)		256.00	32,22 ± 5,551 g	1.36		downregulation of Mstn-1	MBNL1 levels, gymnosis compared with transfection ([1]; each compound at its EC50 concentration): identical MBNL1 modulation results by transfection and gymnosis
9b2KC-218 (antisense ACAUGGUUAGAUCAAGCACAA; all phosphorodiamidate morpholino (PMO), T or U not given here; Pip9b2KC peptide conjugated)		88.26	31,28 ± 4,11 g		1.44		
TCTTACCTCAGTTACAATTTA-Pip9b2 [Scramble, reference compound]					1.00	not detected	TC50 ([2]; toxic concentration 50, DM1 cells transfected 24 h after seeding, read after 96 h, absorbance, non-linear least-squares regression): 217.00 nM; IL-6 and IL-15 expression in quadriceps [5, 6]: reduced levels of IL-6 and IL-15; Spleen weight ratio ([3]; HSALR mice, 9.2 mg/kg (mean) i.v. x3, day 45, bodyweight-normalized, mean ± sd, n = 5): 0,0029 ± 0,0005; Weight ([3]; HSALR mice, 9.2 mg/kg (mean) i.v. x3, body weight, mean ± sd, n = 5): 37,36 ± 2,928 g
